Assay results as given in patent publication US20180245058.

Legend:
Experiment in all cases: cell_activity
[1] = biological target: CCR5 ZFN with wild-type ZC linker (SBS #8266) (artificial) (UniProt P14870); conditions: average of 2; ZFN pair
[2] = tested on: CCR5 ZFN with L6a linker (artificial); conditions: average of 2; ZFN pair
[3] = tested on: CCR5 ZFN with L7a linker (artificial); conditions: ZFN pair
[4] = tested on: mROSA-targeted ZFN pair, Wt/L7a linkers (artificial); conditions: Neuro2A, CEL-I; mock 0.4
[5] = tested on: mROSA-targeted ZFN pair, Wt/Wt linkers (artificial); conditions: Neuro2A, CEL-I; repeats 23.2 and 18.7; mock 0.4
[6] = tested on: rat IgM-targeted ZFN pair including L7a linker (artificial); conditions: rat C6 cells, CEL-I
[7] = tested on: rat IgM-targeted ZFN pair, ZC linkers (artificial); conditions: rat C6 cells, CEL-I

CCR5 ZFN with L6a linker (artificial), sequence (chain, as listed by the source): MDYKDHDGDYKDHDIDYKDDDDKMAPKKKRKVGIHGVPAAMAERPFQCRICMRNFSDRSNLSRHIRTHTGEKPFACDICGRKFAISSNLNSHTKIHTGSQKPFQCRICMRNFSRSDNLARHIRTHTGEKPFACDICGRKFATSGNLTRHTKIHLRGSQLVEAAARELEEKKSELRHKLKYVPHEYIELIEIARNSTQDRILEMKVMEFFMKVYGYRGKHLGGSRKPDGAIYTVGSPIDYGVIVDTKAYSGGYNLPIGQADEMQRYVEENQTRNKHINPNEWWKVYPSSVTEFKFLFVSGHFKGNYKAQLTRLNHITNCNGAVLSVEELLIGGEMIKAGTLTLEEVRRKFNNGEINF
CCR5 ZFN with wild-type ZC linker (SBS #8266) (artificial), sequence (P14870 other isoform, or with tags, fused parts or gaps): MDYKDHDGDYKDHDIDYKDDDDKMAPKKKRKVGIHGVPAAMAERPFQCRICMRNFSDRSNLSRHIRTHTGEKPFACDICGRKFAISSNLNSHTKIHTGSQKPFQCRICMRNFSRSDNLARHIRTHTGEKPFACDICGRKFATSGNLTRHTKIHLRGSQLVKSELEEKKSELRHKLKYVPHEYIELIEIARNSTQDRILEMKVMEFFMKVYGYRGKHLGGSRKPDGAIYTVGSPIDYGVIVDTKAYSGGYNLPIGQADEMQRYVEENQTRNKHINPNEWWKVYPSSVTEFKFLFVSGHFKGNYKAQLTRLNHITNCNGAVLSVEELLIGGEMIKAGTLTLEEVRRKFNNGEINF
CCR5 ZFN with L7a linker (artificial), sequence (chain, as listed by the source): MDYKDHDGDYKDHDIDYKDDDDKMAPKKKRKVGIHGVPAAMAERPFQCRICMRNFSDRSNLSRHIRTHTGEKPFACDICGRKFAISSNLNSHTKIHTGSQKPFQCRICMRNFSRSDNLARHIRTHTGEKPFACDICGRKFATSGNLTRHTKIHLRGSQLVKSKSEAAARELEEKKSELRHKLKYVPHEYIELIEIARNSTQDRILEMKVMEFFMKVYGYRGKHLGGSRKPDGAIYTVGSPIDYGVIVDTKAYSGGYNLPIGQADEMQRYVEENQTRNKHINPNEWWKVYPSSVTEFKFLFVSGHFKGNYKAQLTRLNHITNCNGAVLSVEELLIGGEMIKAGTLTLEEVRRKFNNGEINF

CCR5 ZFN target, 4 bp gap
activity [1]: 1.2 % NHEJ

CCR5 ZFN target, 5 bp gap
activity [1]: 35 % NHEJ | activity [2]: 39.3 % NHEJ

CCR5 ZFN target, 6 bp gap
activity ([3]; average of 2): 31.8 % NHEJ | activity [1]: 11.1 % NHEJ | activity [2]: 25.4 % NHEJ

CCR5 ZFN target, 7 bp gap
activity ([3]; average of 2): 39.6 % NHEJ | activity [2]: 5.1 % NHEJ

CCR5 ZFN target, 8 bp gap
activity ([3]; average of 2 as printed): 6.1 % NHEJ

mROSA target, 6 bp gap
activity [4]: 7.5 % NHEJ | activity [5]: 22.6 % NHEJ

rat IgM target, 6 bp gap
activity [6]: 2.43 % NHEJ | activity [7]: 1.93 % NHEJ
